In general, stoichiometry N refers to a count of units in the complex or per binding partner.

Where a chain is given by its changes, count along the chain named. Numbers in names are those of the source.

Series [1] deals with T1, MJ1647 (Methanocaldococcus jannaschii, UniProt Q59041 1-96).
T1 sequence: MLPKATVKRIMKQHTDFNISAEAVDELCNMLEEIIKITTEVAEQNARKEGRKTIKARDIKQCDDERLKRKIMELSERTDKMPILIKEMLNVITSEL
The series is described as follows: DNA-bridging pull-down. Particulars: EMSA: 50 nM DNA, 10 mM Tris/HCl pH 8.0, 222 mM NaCl, 0.4 mM TCEP, 0.1 mg/ml BSA, 5% glycerol, 37 C 15 min; agarose EMSA: same with 110 mM NaCl, no glycerol …. Background: Mobility shift assays separate free from complexed probe on a gel.

Series [2] concerns the target MJ1647ΔTM, deletion variant of MJ1647 lacking the C-terminal 27 amino acids (Methanocaldococcus jannaschii) (UniProt Q59041). As to the kind of experiment: SEC-MALS; 100 µl protein at 2.0 mg/ml on a Superose12 10/300 column in buffer N(250), 0.5 ml/min.
The target is the same in series [3]. The series is described as follows: native MS; nano-electrospray, protein exchanged into 0.5 M ammonium acetate, Synapt mass spectrometer.
The target of series [4] is T2, A3 (Methanocaldococcus jannaschii, UniProt Q58655 1-67).
T2 sequence: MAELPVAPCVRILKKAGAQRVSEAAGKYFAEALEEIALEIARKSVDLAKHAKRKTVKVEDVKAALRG
As to the kind of experiment: EMSA; single shifted species; EMSA: 50 nM DNA, 10 mM Tris/HCl pH 8.0, 222 mM NaCl, 0.4 mM TCEP, 0.1 mg/ml BSA, 5% glycerol, 37 C 15 min; agarose EMSA: same with 110 mM NaCl, no glycerol; TPM and bridging buffers not in the material. The settings on record: protein: recombinant; tags: untagged; chain copies: 2; label: Cy3 (Methods); blunt.

A further series concerns the target T3, MJ1647ΔTM (Methanocaldococcus jannaschii, UniProt Q59041 1-69, del70-96).
T3 sequence: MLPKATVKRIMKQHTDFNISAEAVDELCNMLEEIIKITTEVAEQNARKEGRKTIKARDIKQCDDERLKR
The series is described as follows: EMSA; pattern identical to A3; EMSA: 50 nM DNA, 10 mM Tris/HCl pH 8.0, 222 mM NaCl, 0.4 mM TCEP, 0.1 mg/ml BSA, 5% glycerol, 37 C 15 min; agarose EMSA: same with 110 mM NaCl, no glycerol; TPM and bridging buffers not in the material. Particulars: protein: recombinant, tags: untagged, chain copies: 2, label: Cy3 (Methods), blunt.

Series [5] has as its target T1, MJ1647. As to the kind of experiment: EMSA; single species; EMSA: 50 nM DNA, 10 mM Tris/HCl pH 8.0, 222 mM NaCl, 0.4 mM TCEP, 0.1 mg/ml BSA, 5% glycerol, 37 C 15 min; agarose EMSA: same with 110 mM NaCl, no glycerol; TPM and bridging buffers not in the material. Particulars: protein: recombinant; tags: untagged; chain copies: 4; label: Cy3 (Methods); 5'-32P for K80E and E95K; blunt.

The target of series [6] is T2, A3. As to the kind of experiment: EMSA; two species (one or two dimers); EMSA: 50 nM DNA, 10 mM Tris/HCl pH 8.0, 222 mM NaCl, 0.4 mM TCEP, 0.1 mg/ml BSA, 5% glycerol, 37 C 15 min; agarose EMSA: same with 110 mM NaCl, no glycerol; TPM and bridging buffers not in the material. Particulars: protein: recombinant; tags: untagged; chain copies: 2; label: Cy3 (Methods); 5'-32P for K80E and E95K; blunt.

The target in another series is T4, MJ1647 E95K (Methanocaldococcus jannaschii, UniProt Q59041 1-96, E95K).
T4 sequence: T1 sequence with E95K
As to the kind of experiment: EMSA; faster (dimer) complex at low, tetramer complex at higher protein; EMSA: 50 nM DNA, 10 mM Tris/HCl pH 8.0, 222 mM NaCl, 0.4 mM TCEP, 0.1 mg/ml BSA, 5% glycerol, 37 C 15 min; agarose EMSA: same with 110 mM NaCl, no glycerol; TPM and bridging buffers not in the material. Particulars: protein: recombinant; tags: untagged; chain copies: 2; label: Cy3 (Methods); 5'-32P for K80E and E95K; blunt.

Another series deals with T5, MJ1647 K80E (Methanocaldococcus jannaschii, UniProt Q59041 1-96, K80E).
T5 sequence: T1 sequence with K80E
The series is described as above. The settings on record: protein: recombinant; tags: untagged; chain copies: 2; label: Cy3 (Methods); 5'-32P for K80E and E95K; blunt.

Series [7] deals with T6, histone variant MJ1647 from Methanocaldococcus jannaschii (Methanocaldococcus jannaschii (strain …, UniProt Q59041)).
T6 chain: T1 sequence
As to the kind of experiment: co-expression with SEC and BS3 cross-linking/SDS-PAGE.

Series [8] concerns the molecule itself. The series is described as follows: SEC-MALS; 100 µl protein at 2.0 mg/ml on a Superose12 10/300 column in buffer N(250), 0.5 ml/min. In general terms: SEC sorts molecules by how far they enter the pores of the column.
Series [9] concerns the molecule itself. As to the kind of experiment: crystal structure; X-ray, 1.9 Å; crystals from 0.1 M NaOAc pH 4.6, 10% PEG3350, 5% tacsimate pH 4.6; four chains in the asymmetric unit as two dimers.
Series [10] concerns the molecule itself. The series is described as follows: cross-linking; BS3 (5 mM), 20 µM monomers, modified N(200) buffer with 10 mM HEPES/NaOH pH 7.5, 25 °C 40 min, SDS-PAGE with SYPRO-Orange; A3 alone, MJ1647 alone and co-expressed A3 and MJ1647; no DNA.
Series [11] deals with the molecule itself. The series is described as follows: SEC; elution profiles of purified wild-type MJ1647 and its charge-reversal and cysteine variants compared.

For 685 bp TPM/bridging substrate, the K half with MJ1647 [1] was 2500 nM.

On to “MJ1647ΔTM, deletion variant of MJ1647 lacking the C-terminal 27 amino acids (from UniProt Q59041 1-96) (domain or fragment)”, for which the stoichiometry N in [2] and in series [3] was 2 in each case.

B1: 30 bp EMSA template (dsDNA)
DNA 1: CATACTGGTTCCAAAGCATGAAATAGTTCCAA
DNA 2: TTGGAACTATTTCATGCTTTGGAACCAGTATG
For B1, the binding result in the series with A3 [4] and with MJ1647ΔTM was “binds” in each case.

B2: 60 bp EMSA template (dsDNA)
DNA 1: CATACTGGTTCCAAAGCATGAAATAGTTCCAAAAGAAGAAGTTGAGGAGTTTTGAAGAGA
DNA 2: TCTCTTCAAAACTCCTCAACTTCTTCTTTTGGAACTATTTCATGCTTTGGAACCAGTATG
With B2, the binding result in the series with MJ1647 [5] was “binds”; in the series with MJ1647ΔTM (5'-32P for K80E and E95K), “binds”; with A3 [6], “binds”; with MJ1647 E95K, “binds”; with MJ1647 K80E, “binds”.

B3: histone A3 (MJ1258) from Methanocaldococcus jannaschii (natural protein, UniProt Q58655 1-67, looked up)
chain: T2 sequence
notes: canonical histone A3 of Methanocaldococcus jannaschii, gene MJ1258, cloned into pET-21a(+) via NdeI and XhoI for expression of untagged protein; expected dimer mass 14.5 kDa; Untagged; also called canonical histone A3; source: E. coli Rosetta 2(DE3), purified (heparin, SP Sepharose, SEC); also co-expressed with MJ1647 from pETDuet-1 in E. coli and purified in the same way
In the case of B3, in series [7], the binding result is recorded as “no binding”. For the same molecule, in [8], the “stoichiometry N” value turned out to be 2.

B4: histone variant MJ1647 from Methanocaldococcus jannaschii (natural protein)
chain: T1 sequence
notes: histone paralogue MJ1647 of Methanocaldococcus jannaschii, histone fold followed by a C-terminal extension of 27 amino acids (tetramerisation module, TM); gene cloned into pET-21a(+) via NdeI and XhoI for expression of untagged protein; expected tetramer mass 44.8 kDa; Untagged; Tetramer in solution (SEC-MALS, native MS); crystallised as dimers at pH 4.6; also called wild-type MJ1647; WT MJ1647; …
On to B4, for which the “stoichiometry N” value in series [9] was determined as 2; in [10], 4.

B5: MJ1647 C28S/C62S (cysteine-free background) (natural protein, Methanocaldococcus jannaschii)
chain: T1 sequence with C28S, C62S
notes: MJ1647 of Methanocaldococcus jannaschii with its two cysteines replaced by serine (C28S, C62S); also called C28S/C62S variant; source: E. coli, purified (as the wild type)
As to B5, the “stoichiometry N” value in [11] turned out to be 4.

B6: MJ1647 C28S/C62S/E95C (natural protein, Methanocaldococcus jannaschii)
chain: T1 sequence with C28S, C62S, E95C
notes: MJ1647 of Methanocaldococcus jannaschii with C28S, C62S and E95C; also called single-cysteine substitution E95C; source: E. coli, purified (as the wild type)
Consider B6, for which the “stoichiometry N” value in series [11] amounted to 4.

B7: MJ1647 K80E charge-reversal mutant (natural protein, Methanocaldococcus jannaschii)
chain: T1 sequence with K80E
notes: MJ1647 of Methanocaldococcus jannaschii with the substitution K80E; source: E. coli, purified (as the wild type; plasmid by site-directed mutagenesis or NEBuilder HiFi DNA assembly)
With B7, the binding result in series [11] is “binds”.

B8: MJ1647 C28S/C62S/K80C/E95C (double-cysteine variant) (natural protein, Methanocaldococcus jannaschii)
chain: T1 sequence with C28S, C62S, K80C, E95C
modifications: disulfide bond between C80 and C95 of two chains (reduced only at 25 mM TCEP)
notes: MJ1647 of Methanocaldococcus jannaschii with C28S, C62S, K80C and E95C; also called double-cysteine substitution; source: E. coli, purified (as the wild type)
Consider B8, for which, in series [11], the “stoichiometry N” value is 4.

B9: MJ1647 E95K charge-reversal mutant (natural protein, Methanocaldococcus jannaschii)
chain: T1 sequence with E95K
notes: MJ1647 of Methanocaldococcus jannaschii with the substitution E95K; source: E. coli, purified (as the wild type; plasmid by site-directed mutagenesis or NEBuilder HiFi DNA assembly)
For the molecule B9, the binding result in [11] is “binds”.

B10: MJ1647 K80E/E95K double charge-reversal mutant (natural protein, Methanocaldococcus jannaschii)
chain: T1 sequence with K80E, E95K
notes: MJ1647 of Methanocaldococcus jannaschii with the substitutions K80E and E95K; source: E. coli, purified (as the wild type; plasmid by site-directed mutagenesis or NEBuilder HiFi DNA assembly)
As to B10, the “stoichiometry N” value in series [11] was 4.

B11: MJ1647 C28S/C62S/K80C (natural protein, Methanocaldococcus jannaschii)
chain: T1 sequence with C28S, C62S, K80C
notes: MJ1647 of Methanocaldococcus jannaschii with C28S, C62S and K80C; also called single-cysteine substitution K80C; source: E. coli, purified (as the wild type)
Regarding B11, the “stoichiometry N” value in series [11] was determined as 4.

Values taken from PMC10516927, “DNA-bridging by an archaeal histone variant via a unique tetramerisation interface” (Communications Biology, 2023).
